Measurements taken from patent US20250257336A1, “ISOLATED OR ENGINEERED POLYPEPTIDES, MICROORGANISMS AS WELL AS METHOD FOR SYNTHESIZING POLYPHENOLIC PHYTOCHEMICALS PHOSPHATE DERIVATIVE USING THE POLYPEPTIDES OR MICROORGANISMS” (National Taiwan University, priority 2021, published 2025).
Changes are numbered by the printed parent chain. In names and notes the source's numbering stands.

B1: K27A: site-directed mutant of the PPS of interest (SEQ ID NO: 13), Lys27 substituted with Ala (protein, listed as Bacillus subtilis)
chain: MKKRGVSNMYSVLFRQAEESSQLAGAAGMNLIKLTKHGLPVPDGFIIQTNALARFMEDNQLQETSENVESGIISGTFSDELKDELTSSFYKLRESYRSVAVRSSSASEDLEGASFAGQYETYLNIKTEEEFLAKVKECWASFFSGRVSSYKKKMNNQIAEPLMGIVVQGLIDSEMSGVIFSRNPVTHDDRELLISASYGLGEAVVSGSVTPDTFIVNKSSFEIQKEIGAKEIYMESAAEGIAEKETSEDMRSRFCLTDEQVIELAEITKKTEDLYGYPVDIEFGIADHQIYLLQARPITTIDQDKKAAEEKRSFMITDTDMNDFWLNMESNIEGPVSPLFSSFIVPALEYGLKKSMQKFPIGVVVDEVKLYRGHIYSKNQGGQQPPSEDCGKELFPILSEHMYDIINHTYLPFYRTLDQLAQTEHTAESALDAFQKLKAFYLTAYEEHFNIVFPQILLTNKLQAMYQDIQGESENAHFYEMLTGKMNKSLETDRCLWLFSMEVQENPNLLTIFENNKPEQLQEKLEQTDEGRHFLKNVHEFLQEYGWRSVKSHDLIEQIWVENPYFALANIQNYVRNGYHFDNEFQKTKEKREKLYNEFLENIEDPGLRTEFDRYYQWTLNSANIKDDHHFYIDAMLDAKARIFLLKIGELLAENGVIQDREDLWFLYDDEVEQALLHPVSLQEKAEKRRQIFHEYELAQAPAYLGTPTKEQLKAAEEIVGAVIEDEKNTENHIFGIAASSGIATGPVKIIRDANEFSQFAPGDVLVCKMTTPLWTSLFQDAKAIITDTGGILSHAAIIAREYGIPAVLGTRTATERLRDGDIITVDGSSGKITVVSRS
B2: K378A: site-directed mutant of the PPS of interest, Lys378 substituted with Ala (protein)
chain: B1 chain with A27K, K378A
B3: H629A: site-directed mutant of the PPS of interest, His629 substituted with Ala (protein)
chain: B1 chain with A27K, H629A
B4: E329A: site-directed mutant of the PPS of interest, Glu329 substituted with Ala (protein)
chain: B1 chain with A27K, E329A
B5: H630A: site-directed mutant of the PPS of interest, His630 substituted with Ala (protein)
chain: B1 chain with A27K, H630A
B6: H795A: site-directed mutant of the PPS of interest, His795 substituted with Ala (protein)
chain: B1 chain with A27K, H795A
B7: D627A: site-directed mutant of the PPS of interest, Asp627 substituted with Ala (protein)
chain: B1 chain with A27K, D627A

Experiments:
[1] = D7P vs daidzein, G7P vs genistein; produced with Bacillus subtilis BCRC 80517; cited from earlier work
[2] = enzymatic activity of the PPS of interest and its protein mutant strains, genistein as substrate (G7P formation, HPLC); format: biochemical; details: Mg2+/ATP, 40° C., 10 minutes, pH 7.8, FIG. 30
Method: After vibration-based mixing and centrifugation (13,000 rpm, 4° C., 5 minutes), the resulting supernatant was collected, diluted, and then analyzed by HPLC. The activity unit was defined as the amount of enzyme required to yield 1 nmol of product per unit time.
Once an enzyme was prepared, its protein concentration was diluted to 0.1 mg/mL. The enzyme and the enzyme reaction liquid were mixed at a ratio of 1:1 (v/v) and were allowed to react at 40° C. for 10 minutes, at the end of which methanol was added to dilute the protein tenfold and thereby terminate the reaction. The changes in concentration of genistein (GEN) and G7P (a product of GEN phosphorylation) were analyzed. The catalytic activity of the PPS of interest in the present invention and its mutant strains were subsequently calculated and compared, as shown in FIG. 30. […] The activity test results of other protein mutant strains show no total loss of activity but a trend of decrease in activity. […] However, while the aforesaid important catalytic sites in the active domain for stabilizing the phosphate group were inferred with relatively great certainty, the amino acids in Arm1 either had relatively poor prediction results or had important catalytic sites composed of non-polar amino acids (which when substituted with Ala produce little change in property) such that the combined use of site-directed mutagenesis and enzymatic activity determination lacked accuracy.

Row | Molecule | water solubility relative to daidzein and genistein, respectively [1] | catalytic activity (relative specific activity) compared with the PPS of interest [2]
1 | O=c1c(-c2ccc(O)cc2)coc2cc(OP(=O)(O)O)ccc12 [D7P, daidzein 7-O-phosphate] | a hundred thousand times | 
2 | O=c1c(-c2ccc(O)cc2)coc2cc(OP(=O)(O)O)cc(O)c12 [G7P, genistein 7-O-phosphate] | a hundred thousand times | 
3 | B1 |  | lost its activity
4 | B2 |  | relatively significant decrease in activity
5 | B3 |  | significant decrease in protein activity
6 | B4 |  | relatively significant decrease in activity
7 | B5 |  | significant decrease in protein activity
8 | B6 |  | total loss of PPS activity
9 | B7 |  | significant decrease in protein activity
